The labels stand for the following.
B1: Dynamin-2 (Rattus norvegicus (Rat)), P39052 (parent)
chain: MGNRGMEELIPLVNKLQDAFSSIGQSCHLDLPQIAVVGGQSAGKSSVLENFVGRDFLPRGSGIVTRRPLILQLIFSKTEYAEFLHCKSKKFTDFDEVRQEIEAETDRVTGTNKGISPVPINLRVYSPHVLNLTLIDLPGITKVPVGDQPPDIEYQIKDMILQFISRESSLILAVTPANMDLANSDALKLAKEVDPQGLRTIGVITKLDLMDEGTDARDVLENKLLPLRRGYIGVVNRSQKDIEGRKDIRAALAAERKFFLSHPAYRHMADRMGTPHLQKTLNQQLTNHIRESLPTLRSKLQSQLLSLEKEVEEYKNFRPDDPTRKTKALLQMVQQFGVDFEKRIEGSGDQVDTLELSGGARINRIFHERFPFELVKMEFDEKDLRREISYAIKNIHGVRTGLFTPDLAFEAIVKKQVVKLKEPCLKCVDLVIQELISTVRQCTSKLSSYPRLREETERIVTTYIREREGRTKDQILLLIDIEQSYINTNHEDFIGFANAQQRSTQLNKKRAIPNQGEILVIRRGWLTINNISLMKGGSKEYWFVLTAESLSWYKDEEEKEKKYMLPLDNLKIRDVEKGFMSNKHVFAIFNTEQRNVYKDLRQIELACDSQEDVDSWKASFLRAGVYPEKDQAENEDGAQENTFSMDPQLERQVETIRNLVDSYVAIINKSIRDLMPKTIMHLMINNTKAFIHHELLAYLYSSADQSSLMEESAEQAQRRDDMLRMYHALKEALNIIGDISTSTVSTPVPPPVDDTWLQNTSSHSPTPQRRPVSSVHPPGRPPAVRGPTPGPPLIPMPVGATSSFSAPPIPSRPGPQNVFANNDPFSAPPQIPSRPARIPPGIPPGVPSRRAPAAPSRPTIIRPAEPSLLD

This assay covers variants of B1. Conditions: with sh3k1_human SH3KBP1, Q96B97.
Sequence of sh3k1_human SH3KBP1, Q96B97 (Q96B97 whole entry): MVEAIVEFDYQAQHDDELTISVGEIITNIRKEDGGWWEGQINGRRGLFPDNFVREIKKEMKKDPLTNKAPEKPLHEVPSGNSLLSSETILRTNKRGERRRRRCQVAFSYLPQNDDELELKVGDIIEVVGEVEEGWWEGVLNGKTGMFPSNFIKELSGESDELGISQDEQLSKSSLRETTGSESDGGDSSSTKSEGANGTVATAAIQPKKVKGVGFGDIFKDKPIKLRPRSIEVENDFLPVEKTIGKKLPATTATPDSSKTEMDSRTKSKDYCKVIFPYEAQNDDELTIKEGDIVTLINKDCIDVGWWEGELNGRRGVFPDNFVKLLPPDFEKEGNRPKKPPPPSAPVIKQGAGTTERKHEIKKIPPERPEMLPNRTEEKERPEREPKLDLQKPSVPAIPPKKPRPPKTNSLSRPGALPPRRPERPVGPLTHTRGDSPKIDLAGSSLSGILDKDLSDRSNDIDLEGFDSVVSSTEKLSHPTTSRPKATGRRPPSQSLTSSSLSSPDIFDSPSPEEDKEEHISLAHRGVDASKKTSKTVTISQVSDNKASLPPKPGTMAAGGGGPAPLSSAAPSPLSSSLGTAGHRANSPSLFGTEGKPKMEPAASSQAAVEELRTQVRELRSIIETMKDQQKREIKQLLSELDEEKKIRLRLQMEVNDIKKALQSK
Consider P765A, for which the “effect of a mutation on the interaction” value was “disrupting interaction”.
In the case of P767A, the “effect of a mutation on the interaction” value is recorded as “disrupting interaction”.

Source of the values: IntAct's records for PubMed 20711168.
